Substitutions are numbered along the chain they refer to.
Columns and labels:
[1] = molecular target: recombinant human Fc gamma RIIIa (CD16a) 158F (human, UniProt P08637 17-208)
[2] = molecular target: recombinant human Fc gamma RIIIa (CD16a) 158V (human, UniProt P08637 17-208)
[3] = molecular target: recombinant human Fc gamma RIIIb (CD16b) (human, UniProt O75015 17-200)
[4] = molecular target: T1, recombinant human Fc gamma RIIa (CD32a) 131H (human, UniProt P12318 36-218)
T1 sequence (looked up): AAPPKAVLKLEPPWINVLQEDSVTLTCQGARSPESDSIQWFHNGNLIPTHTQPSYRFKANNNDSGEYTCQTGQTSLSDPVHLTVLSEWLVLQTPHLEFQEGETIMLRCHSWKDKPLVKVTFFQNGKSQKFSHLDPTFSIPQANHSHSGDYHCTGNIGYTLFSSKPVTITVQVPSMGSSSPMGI

[5] = molecular target: T2, recombinant human Fc gamma RIIa (CD32a) 131R (human, UniProt P12318 36-218)
T2 sequence (looked up): T1 sequence (looked up) with H132R

[6] = molecular target: T3, recombinant human Fc gamma RIIb/c (CD32b/c) (human, UniProt P31994 46-217)
T3 sequence (looked up): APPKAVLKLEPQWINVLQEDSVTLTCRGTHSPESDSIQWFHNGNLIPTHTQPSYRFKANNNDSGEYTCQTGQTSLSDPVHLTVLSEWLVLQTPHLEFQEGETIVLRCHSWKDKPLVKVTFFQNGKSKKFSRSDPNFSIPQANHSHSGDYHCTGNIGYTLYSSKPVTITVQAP

[7] = molecular target: recombinant human Fc gamma RI (CD64) (human, UniProt P12314 16-288)
recombinant human Fc gamma RI (CD64), sequence (P12314 16-288 limits assumed): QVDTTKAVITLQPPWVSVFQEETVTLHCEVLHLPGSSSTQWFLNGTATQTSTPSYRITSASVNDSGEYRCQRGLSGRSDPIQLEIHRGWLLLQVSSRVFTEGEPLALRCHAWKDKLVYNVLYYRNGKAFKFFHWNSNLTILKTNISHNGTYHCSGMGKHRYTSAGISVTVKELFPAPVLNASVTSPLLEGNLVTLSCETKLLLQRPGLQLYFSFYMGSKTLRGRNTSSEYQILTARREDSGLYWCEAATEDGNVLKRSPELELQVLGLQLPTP

CD20 Lipoparticles = molecular target: T4, CD20 Lipoparticles (Homo sapiens (Human), UniProt P11836 1-297)
T4 sequence: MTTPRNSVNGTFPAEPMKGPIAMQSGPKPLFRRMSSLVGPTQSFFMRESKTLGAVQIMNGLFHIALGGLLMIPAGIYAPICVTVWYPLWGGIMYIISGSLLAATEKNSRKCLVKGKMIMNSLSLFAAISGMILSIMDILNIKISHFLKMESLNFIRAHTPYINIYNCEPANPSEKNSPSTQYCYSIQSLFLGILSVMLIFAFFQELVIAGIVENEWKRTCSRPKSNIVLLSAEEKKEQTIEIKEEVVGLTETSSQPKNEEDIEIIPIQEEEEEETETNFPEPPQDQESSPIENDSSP

recombinant human Fc gamma RIIIa (CD16a) 158V, sequence (P08637 17-208 F176V limits assumed): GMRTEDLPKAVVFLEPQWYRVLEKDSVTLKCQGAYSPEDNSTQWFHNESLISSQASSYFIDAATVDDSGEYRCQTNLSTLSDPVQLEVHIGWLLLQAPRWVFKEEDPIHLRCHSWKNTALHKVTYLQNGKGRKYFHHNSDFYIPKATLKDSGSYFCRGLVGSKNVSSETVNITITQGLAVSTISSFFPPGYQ
recombinant human Fc gamma RIIIa (CD16a) 158F, sequence (P08637 17-208 limits assumed): as the sequence (P08637 17-208 F176V limits assumed) above, with V160F counted along it
recombinant human Fc gamma RIIIb (CD16b), sequence (O75015 17-200 limits assumed): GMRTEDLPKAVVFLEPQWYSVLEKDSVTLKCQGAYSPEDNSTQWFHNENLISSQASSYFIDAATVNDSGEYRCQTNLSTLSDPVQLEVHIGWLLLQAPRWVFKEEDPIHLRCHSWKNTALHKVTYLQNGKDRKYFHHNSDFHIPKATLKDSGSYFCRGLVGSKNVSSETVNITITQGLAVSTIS

B1: Rc66SIDE-P28-Rc66SIDE (antibody, human IgG1, kappa)
light: QIVLSQSPAILSASPGEKVTMTCRASSSVSYIHWFQQKPGSSPKPWIYATSNLASGVPVRFSGSGSGTSYSLTISRVEAEDAATYYCQQWTSNPPTFGGGTKLEIKRTVAAPSVFIFPPSDEQLKSGTASVVCLLNNFYPREAKVQWKVDNALQSGNSQESVTEQDSKDSTYSLSSTLTLSKADYEKHKVYACEVTHQGLSSPVTKSFNRGEC
heavy: QVQLQQPGAELVKPGASVKMSCKASGYTFTSYNMHWVKQTPGRGLEWIGAIYPGNGDTSYNQKFKGKATLTADKSSSTAYMQLSSLTSEDSAVYYCARSTYYGGDWYFNVWGAGTTVTVSAASTKGPSVFPLAPSSKSTSGGTAALGCLVKDYFPEPVTVSWNSGALTSGVHTFPAVLQSSGLYSLSSVVTVPSSSLGTQTYICNVNHKPSNTKVDKKAEPKSCDKTHTCPPCPAPELLGGPDVFLFPPKPKDTLMISRTPEVTCVVVDVSHEDPEVKFNWYVDGVEVHNAKTKPREEQYNSTYRVVSVLTVLHQDWLNGKEYKCKVSNKALPAPEEKTISKAKGQPREPQVYVLPPSRDELTKNQVSLLCLVKGFYPSDIAVEWESNGQPENNYLTWPPVLDSDGSFFLYSKLTVDKSRWQQGNVFSCSVMHEALHNHYTQKSLSLSPGK
chain: CPPCPAPELLGGPDVFLFPPKPKDTLMISRTPEVTCVVVDVSHEDPEVKFNWYVDGVEVHNAKTKPREEQYNSTYRVVSVLTVLHQDWLNGKEYKCKVSNKALPAPEEKTISKAKGQPREPQVYVYPPSRDELTKNQVSLTCLVKGFYPSDIAVEWESNGQPENNYKTTPPVLDSDGSFALVSKLTVDKSRWQQGNVFSCSVMHEALHNHYTQKSLSLSPGK
[1]
  Kd: 6.62 nM
[2]
  Kd: 4.98 nM
[3]
  Kd: 5.64 nM
[4]
  Kd: 5.42 nM
[5]
  Kd: 8.11 nM
[6]
  Kd: 7.28 nM
[7]
  Kd: 1.14 nM
CD20 Lipoparticles
  Kd: < 0.001 nM
